Test results as given in article PMC3796444 (PLoS ONE, 2013).

B1: alanine:glyoxylate aminotransferase p.P319L on the minor allele, recombinant His-tagged (enzyme, human, UniProt P21549 1-392, looked up)
chain: MASHKLLVTPLKALLKPLSIPNQLLLGPGPSNLPPRIMAAGGLQMIGSMSKDMYQIMDEIKEGIQYVFQTRNPLTLVISGSGHCALEAALVNVLEPGDSFLVGANGIWGQRAVDIGERIGARVHPMTKDPGGHYTLQEVEEGLAQHKPVLLFLTHGESSTGVLQPLDGFGELCHRYKCLLLVDSVASLGGTPLYMDRQGIDILYSGSQKALNAPPGTSLISFSDKAKKKMYSRKTKPFSFYLDIKWLANFWGCDDQPRMYHHTIPVISLYSLRESLALIAEQGLENSWRQHREAAAYLHGRLQALGLQLFVKDPALRLLTVTTVAVPAGYDWRDIVSYVMDHFDIEIMGGLGPSTGKVLRIGLLGCNATRENVDRVTEALRAALQHCPKKKL
notes: alanine:glyoxylate aminotransferase (AGT), human, PH1 mutation p.P319L in the minor allele; source: E. coli BL21 (pCOLDII), purified (IMAC, SEC)
B2: alanine:glyoxylate aminotransferase minor allele (p.P11L/I340M), recombinant His-tagged (enzyme, human, UniProt P21549 1-392, looked up)
chain: MASHKLLVTPLKALLKPLSIPNQLLLGPGPSNLPPRIMAAGGLQMIGSMSKDMYQIMDEIKEGIQYVFQTRNPLTLVISGSGHCALEAALVNVLEPGDSFLVGANGIWGQRAVDIGERIGARVHPMTKDPGGHYTLQEVEEGLAQHKPVLLFLTHGESSTGVLQPLDGFGELCHRYKCLLLVDSVASLGGTPLYMDRQGIDILYSGSQKALNAPPGTSLISFSDKAKKKMYSRKTKPFSFYLDIKWLANFWGCDDQPRMYHHTIPVISLYSLRESLALIAEQGLENSWRQHREAAAYLHGRLQALGLQLFVKDPALRLPTVTTVAVPAGYDWRDIVSYVMDHFDIEIMGGLGPSTGKVLRIGLLGCNATRENVDRVTEALRAALQHCPKKKL
notes: alanine:glyoxylate aminotransferase (AGT), human, minor allele; also called AGT LM; LM; source: E. coli BL21 (pCOLDII), purified (IMAC, SEC)
B3: alanine:glyoxylate aminotransferase p.R197Q on the minor allele, recombinant His-tagged (enzyme, human, UniProt P21549 1-392, looked up)
chain: MASHKLLVTPLKALLKPLSIPNQLLLGPGPSNLPPRIMAAGGLQMIGSMSKDMYQIMDEIKEGIQYVFQTRNPLTLVISGSGHCALEAALVNVLEPGDSFLVGANGIWGQRAVDIGERIGARVHPMTKDPGGHYTLQEVEEGLAQHKPVLLFLTHGESSTGVLQPLDGFGELCHRYKCLLLVDSVASLGGTPLYMDQQGIDILYSGSQKALNAPPGTSLISFSDKAKKKMYSRKTKPFSFYLDIKWLANFWGCDDQPRMYHHTIPVISLYSLRESLALIAEQGLENSWRQHREAAAYLHGRLQALGLQLFVKDPALRLPTVTTVAVPAGYDWRDIVSYVMDHFDIEIMGGLGPSTGKVLRIGLLGCNATRENVDRVTEALRAALQHCPKKKL
notes: alanine:glyoxylate aminotransferase (AGT), human, rare variant p.R197Q in the minor allele; source: E. coli BL21 (pCOLDII), purified (IMAC, SEC)
B4: alanine:glyoxylate aminotransferase p.I244T on the minor allele, recombinant His-tagged (enzyme, human, UniProt P21549 1-392, looked up)
chain: MASHKLLVTPLKALLKPLSIPNQLLLGPGPSNLPPRIMAAGGLQMIGSMSKDMYQIMDEIKEGIQYVFQTRNPLTLVISGSGHCALEAALVNVLEPGDSFLVGANGIWGQRAVDIGERIGARVHPMTKDPGGHYTLQEVEEGLAQHKPVLLFLTHGESSTGVLQPLDGFGELCHRYKCLLLVDSVASLGGTPLYMDRQGIDILYSGSQKALNAPPGTSLISFSDKAKKKMYSRKTKPFSFYLDTKWLANFWGCDDQPRMYHHTIPVISLYSLRESLALIAEQGLENSWRQHREAAAYLHGRLQALGLQLFVKDPALRLPTVTTVAVPAGYDWRDIVSYVMDHFDIEIMGGLGPSTGKVLRIGLLGCNATRENVDRVTEALRAALQHCPKKKL
notes: alanine:glyoxylate aminotransferase (AGT), human, PH1 mutation p.I244T in the minor allele (p.P11L, p.I244T and p.I340M in cis); source: E. coli BL21 (pCOLDII), purified (IMAC, SEC)
B5: alanine:glyoxylate aminotransferase p.A295T on the minor allele, recombinant His-tagged (enzyme, human, UniProt P21549 1-392, looked up)
chain: MASHKLLVTPLKALLKPLSIPNQLLLGPGPSNLPPRIMAAGGLQMIGSMSKDMYQIMDEIKEGIQYVFQTRNPLTLVISGSGHCALEAALVNVLEPGDSFLVGANGIWGQRAVDIGERIGARVHPMTKDPGGHYTLQEVEEGLAQHKPVLLFLTHGESSTGVLQPLDGFGELCHRYKCLLLVDSVASLGGTPLYMDRQGIDILYSGSQKALNAPPGTSLISFSDKAKKKMYSRKTKPFSFYLDIKWLANFWGCDDQPRMYHHTIPVISLYSLRESLALIAEQGLENSWRQHREATAYLHGRLQALGLQLFVKDPALRLPTVTTVAVPAGYDWRDIVSYVMDHFDIEIMGGLGPSTGKVLRIGLLGCNATRENVDRVTEALRAALQHCPKKKL
notes: alanine:glyoxylate aminotransferase (AGT), human, rare variant p.A295T in the minor allele; source: E. coli BL21 (pCOLDII), purified (IMAC, SEC)
B6: alanine:glyoxylate aminotransferase p.G170R on the minor allele, recombinant His-tagged (enzyme, human, UniProt P21549 1-392, looked up)
chain: MASHKLLVTPLKALLKPLSIPNQLLLGPGPSNLPPRIMAAGGLQMIGSMSKDMYQIMDEIKEGIQYVFQTRNPLTLVISGSGHCALEAALVNVLEPGDSFLVGANGIWGQRAVDIGERIGARVHPMTKDPGGHYTLQEVEEGLAQHKPVLLFLTHGESSTGVLQPLDGFRELCHRYKCLLLVDSVASLGGTPLYMDRQGIDILYSGSQKALNAPPGTSLISFSDKAKKKMYSRKTKPFSFYLDIKWLANFWGCDDQPRMYHHTIPVISLYSLRESLALIAEQGLENSWRQHREAAAYLHGRLQALGLQLFVKDPALRLPTVTTVAVPAGYDWRDIVSYVMDHFDIEIMGGLGPSTGKVLRIGLLGCNATRENVDRVTEALRAALQHCPKKKL
notes: alanine:glyoxylate aminotransferase (AGT), human, PH1 mutation p.G170R in the minor allele (p.P11L, p.G170R and p.I340M in cis); source: E. coli BL21 (pCOLDII), purified (IMAC, SEC)
B7: alanine:glyoxylate aminotransferase p.P11L, recombinant His-tagged (enzyme, human, UniProt P21549 1-392, looked up)
chain: MASHKLLVTPLKALLKPLSIPNQLLLGPGPSNLPPRIMAAGGLQMIGSMSKDMYQIMDEIKEGIQYVFQTRNPLTLVISGSGHCALEAALVNVLEPGDSFLVGANGIWGQRAVDIGERIGARVHPMTKDPGGHYTLQEVEEGLAQHKPVLLFLTHGESSTGVLQPLDGFGELCHRYKCLLLVDSVASLGGTPLYMDRQGIDILYSGSQKALNAPPGTSLISFSDKAKKKMYSRKTKPFSFYLDIKWLANFWGCDDQPRMYHHTIPVISLYSLRESLALIAEQGLENSWRQHREAAAYLHGRLQALGLQLFVKDPALRLPTVTTVAVPAGYDWRDIVSYVIDHFDIEIMGGLGPSTGKVLRIGLLGCNATRENVDRVTEALRAALQHCPKKKL
notes: alanine:glyoxylate aminotransferase (AGT), human, polymorphic variant p.P11L; source: E. coli BL21 (pCOLDII), purified (IMAC, SEC)
B8: alanine:glyoxylate aminotransferase p.I340M, recombinant His-tagged (enzyme, human)
chain: MASHKLLVTPPKALLKPLSIPNQLLLGPGPSNLPPRIMAAGGLQMIGSMSKDMYQIMDEIKEGIQYVFQTRNPLTLVISGSGHCALEAALVNVLEPGDSFLVGANGIWGQRAVDIGERIGARVHPMTKDPGGHYTLQEVEEGLAQHKPVLLFLTHGESSTGVLQPLDGFGELCHRYKCLLLVDSVASLGGTPLYMDRQGIDILYSGSQKALNAPPGTSLISFSDKAKKKMYSRKTKPFSFYLDIKWLANFWGCDDQPRMYHHTIPVISLYSLRESLALIAEQGLENSWRQHREAAAYLHGRLQALGLQLFVKDPALRLPTVTTVAVPAGYDWRDIVSYVMDHFDIEIMGGLGPSTGKVLRIGLLGCNATRENVDRVTEALRAAL
notes: alanine:glyoxylate aminotransferase (AGT), human, polymorphic variant p.I340M; Crystallised here (PDB 2YOB); source: E. coli BL21 (pCOLDII), purified (IMAC, SEC)

Assays:
[1] = target: the molecule itself; assay: SEC; purified recombinant AGT variants; single peak, elution volume of a ≈90 kDa dimer; data not shown
[2] = substrate: C[C@H](N)C(=O)O; assay: LDH-coupled pyruvate assay, global double-displacement fit; format: biochemical, Homo sapiens; details: glyoxylate 0-5 mM, 150 µM PLP, 0.1 M Na-phosphate pH 8, 25°C
Excerpt: LDH-coupled pyruvate assay, global double-displacement fit on alanine:glyoxylate aminotransferase (AGT), AGT WT (major allele)

| Protein | stoichiometry N [1] | Km [2] |
| --- | --- | --- |
| B1 | 2 |  |
| B2 | 2 | 19.8 ± 1.5 mM |
| B3 | 2 |  |
| B4 | 2 |  |
| B5 | 2 |  |
| B6 | 2 |  |
| B7 | 2 |  |
| B8 | 2 |  |
